Reference: the DeepSol protein solubility set

Assay: soluble on expression in E. coli; label from the status in PepcDB or PDB records

Sequence | soluble on expression in E. coli
MGSDKIHHHHHHMNAPLLLRNVGRGESTESGAVPPAVLPPVQPSPTTLQAPDHAARRRIAVFRALQLGDMLCAVPALRALREGEPDAHITLIGLPWVRDFASRFGSLIDDVMVFPGAPGFPERPYDAAALAAFHAEARARRFDLAIQLHGSGTLSNDVVRQLGARTIAGFCPTSAEAALANEHERLLPWPGGNEIERLLGLMRALGYPVVDAHLAFPLRPQDHAGWQRLAELHGLVGGEYICVHPGARMLSRRWPVERFADVALRLRKRWRIVVTGAPDEIMLTHRLCELIGGDVVNLTAATPLGELAALIAHARLLLCNDTGPSHIAAALDTPSVVVSCGGDSDRWAPLDATLHHVLASYPPCRPCNWQKCPIRHECATAITVDAVEAEALSLASRGHDHA | not soluble
MATEAVYGSWDSPITPDLFGKCNCKSICEMQVVGGNVYWIEQNSVTGKRELYSKPTNGDTRTRWADGQSVQTAIHEYGGGALHVLADGSVLFATIEGVFYQKSADSGVEQLAEGNNRMFRFSDFSATDTHVFCVNETHQADAKFPENRLISIDRATKNQNVIAHGADFYAYPRVSPDGKKLVWMQWSLPNMPWDETSIRMADLKGGESSNEVTLKDGTGKQINYSEPTWDGDELLTVNDSTNWWNVYKSAAEPNSVEKNLNPIQREISYPLWQLGFRNYVLNKKYLVMNADGILYVRSGDVTVEIPTPGYTVFGYLSLDQNGSDLFAIASGPKRASSVISIDLANKNFPLKVHRESRDSSEIDALEISEPEEFVFKSDGVDVSAGTLPPVLLLGHGGPTAPAQNNLDLKKQFFTSRGIAVFDVNYRGSTGFGTEFRRMLYKNCGVADRDDMLNGAKALVEQGKVDAEKVLITGSSSGGYLILSCLISPKNIIKAAVSVYGVADLLALDEDTHKLERCYNEMLIGKYPEQASIYEERSPIYHIDKIRTPIAFLHGREDTVVPMSQSITMYEKIRASGVTTALMLFDGEGHGFRNGQVIKESTEATFYFLMKAVGIEPSISSKIEIVNPKH | not soluble
MGSDKIHHHHHHMDAILECCAGLDVHQETVVACILFGSLESKPKKTIRTFSTTTSDLLALTDWLEEEKCSHVAMESTGVYWKPVWNILEAGSFQLSLANAQRIKNLPGRKTDVKDAEWIAQLLRSGLIQGSFVPPAEIRDLRDLTRYRKKLLQDATQEKNRIHKILQDANIKITTYISDIFGVSGRNIMESLMDGEVITVEKLNQMVKGKVKSKIPGLADALNHRLRSHHRDMIRYSWSHLKFLEQSLINVEQKISECMAPYQQEVELLTSIPGINQTSSAIMIAELGADMSVFPTDSQLSSWAGVSPGNNESAGKKKEGVFPQETKR | not soluble
MGSDKIHHHHHHMVAIDLPYDKRTITAQIDDENYAGKLVSQAATYHNKLSEQETVEKSLDNPIGSDKLEELARGKHNIVIISSDHTRPVPSHIITPILLRRLRSVAPDARIRILVATGFHRPSTHEELVNKYGEDIVNNEEIVMHVSTDDSSMVKIGQLPSGGDCIINKVAAEADLLISEGFIESHFFAGFSGGRKSVLPGIASYKTIMANHSGEFINSPKARTGNLMHNSIHKDMVYAARTAKLAFIINVVLDEDKKIIGSFAGDMEAAHKVGCDFVKELSSVPAIDCDIAISTNGGYPLDQNIYQAVKGMTAAEATNKEGGTIIMVAGARDGHGGEGFYHNLADVDDPKEFLDQAINTPRLKTIPDQWTAQIFARILVHHHVIFVSDLVDPDLITNMHMELAKTLDEAMEKAYAREGQAAKVTVIPDGLGVIVK | not soluble
MLKIGPYEFSSRLLLGTGKYPSLDVQKEAVEASGAEILTFAVRRMNIFSPEQPNFLEQLDLSKYKLLPNTAGAKTAEEAVRIARLAKASGLCDMIKVEVIGCDKTLLPDPIETLKAAEMLLEEGFIVLPYTSDDVVLAKRLEELGCHAIMPGASPIGSGQGIINPLNLSFIIEQANVPVIVDAGIGGPADAALAMELGADGVLLNTAVSGAADPVKMAKAMKLAVEAGRLGYEAGRIPKKRYASASSPTEGMSVV | not soluble
MGSDKIHHHHHHMIHITSLDDGLELFKALGSDIRIQILKILLENNQMSMNQIANELNISNGALTGHIKKLEECGLISASNDSSGHGNQKLCSLIQDRILVEIEKPIDLSNVYNTSIKVGQFSSHNICPTCGLATSSFVIGELDDVRYFDHPDHFNADIMWFTKGYVEYVIPNLIPRNQKITQLSLSAEISSEAPGIDNDWPSDISFYINDTLVGTWTSPGDYGDVRGMFTPEWWPQNWNQYGLLKLLVINHKGTFIDGLKISDITTSELKLDYTSTIRFRIAVEEDSAHVGGLTIFGKSFGNYDQDIVVSINYEPLDTEKNTK | not soluble
